Measured values from patent US7022496.

Target: catalytic subunit of the cellular DNA-dependent protein kinase (human) (UniProt P78527)
Experiment: cell-based or functional assay

Chain of UniProt P78527 (P78527 whole entry): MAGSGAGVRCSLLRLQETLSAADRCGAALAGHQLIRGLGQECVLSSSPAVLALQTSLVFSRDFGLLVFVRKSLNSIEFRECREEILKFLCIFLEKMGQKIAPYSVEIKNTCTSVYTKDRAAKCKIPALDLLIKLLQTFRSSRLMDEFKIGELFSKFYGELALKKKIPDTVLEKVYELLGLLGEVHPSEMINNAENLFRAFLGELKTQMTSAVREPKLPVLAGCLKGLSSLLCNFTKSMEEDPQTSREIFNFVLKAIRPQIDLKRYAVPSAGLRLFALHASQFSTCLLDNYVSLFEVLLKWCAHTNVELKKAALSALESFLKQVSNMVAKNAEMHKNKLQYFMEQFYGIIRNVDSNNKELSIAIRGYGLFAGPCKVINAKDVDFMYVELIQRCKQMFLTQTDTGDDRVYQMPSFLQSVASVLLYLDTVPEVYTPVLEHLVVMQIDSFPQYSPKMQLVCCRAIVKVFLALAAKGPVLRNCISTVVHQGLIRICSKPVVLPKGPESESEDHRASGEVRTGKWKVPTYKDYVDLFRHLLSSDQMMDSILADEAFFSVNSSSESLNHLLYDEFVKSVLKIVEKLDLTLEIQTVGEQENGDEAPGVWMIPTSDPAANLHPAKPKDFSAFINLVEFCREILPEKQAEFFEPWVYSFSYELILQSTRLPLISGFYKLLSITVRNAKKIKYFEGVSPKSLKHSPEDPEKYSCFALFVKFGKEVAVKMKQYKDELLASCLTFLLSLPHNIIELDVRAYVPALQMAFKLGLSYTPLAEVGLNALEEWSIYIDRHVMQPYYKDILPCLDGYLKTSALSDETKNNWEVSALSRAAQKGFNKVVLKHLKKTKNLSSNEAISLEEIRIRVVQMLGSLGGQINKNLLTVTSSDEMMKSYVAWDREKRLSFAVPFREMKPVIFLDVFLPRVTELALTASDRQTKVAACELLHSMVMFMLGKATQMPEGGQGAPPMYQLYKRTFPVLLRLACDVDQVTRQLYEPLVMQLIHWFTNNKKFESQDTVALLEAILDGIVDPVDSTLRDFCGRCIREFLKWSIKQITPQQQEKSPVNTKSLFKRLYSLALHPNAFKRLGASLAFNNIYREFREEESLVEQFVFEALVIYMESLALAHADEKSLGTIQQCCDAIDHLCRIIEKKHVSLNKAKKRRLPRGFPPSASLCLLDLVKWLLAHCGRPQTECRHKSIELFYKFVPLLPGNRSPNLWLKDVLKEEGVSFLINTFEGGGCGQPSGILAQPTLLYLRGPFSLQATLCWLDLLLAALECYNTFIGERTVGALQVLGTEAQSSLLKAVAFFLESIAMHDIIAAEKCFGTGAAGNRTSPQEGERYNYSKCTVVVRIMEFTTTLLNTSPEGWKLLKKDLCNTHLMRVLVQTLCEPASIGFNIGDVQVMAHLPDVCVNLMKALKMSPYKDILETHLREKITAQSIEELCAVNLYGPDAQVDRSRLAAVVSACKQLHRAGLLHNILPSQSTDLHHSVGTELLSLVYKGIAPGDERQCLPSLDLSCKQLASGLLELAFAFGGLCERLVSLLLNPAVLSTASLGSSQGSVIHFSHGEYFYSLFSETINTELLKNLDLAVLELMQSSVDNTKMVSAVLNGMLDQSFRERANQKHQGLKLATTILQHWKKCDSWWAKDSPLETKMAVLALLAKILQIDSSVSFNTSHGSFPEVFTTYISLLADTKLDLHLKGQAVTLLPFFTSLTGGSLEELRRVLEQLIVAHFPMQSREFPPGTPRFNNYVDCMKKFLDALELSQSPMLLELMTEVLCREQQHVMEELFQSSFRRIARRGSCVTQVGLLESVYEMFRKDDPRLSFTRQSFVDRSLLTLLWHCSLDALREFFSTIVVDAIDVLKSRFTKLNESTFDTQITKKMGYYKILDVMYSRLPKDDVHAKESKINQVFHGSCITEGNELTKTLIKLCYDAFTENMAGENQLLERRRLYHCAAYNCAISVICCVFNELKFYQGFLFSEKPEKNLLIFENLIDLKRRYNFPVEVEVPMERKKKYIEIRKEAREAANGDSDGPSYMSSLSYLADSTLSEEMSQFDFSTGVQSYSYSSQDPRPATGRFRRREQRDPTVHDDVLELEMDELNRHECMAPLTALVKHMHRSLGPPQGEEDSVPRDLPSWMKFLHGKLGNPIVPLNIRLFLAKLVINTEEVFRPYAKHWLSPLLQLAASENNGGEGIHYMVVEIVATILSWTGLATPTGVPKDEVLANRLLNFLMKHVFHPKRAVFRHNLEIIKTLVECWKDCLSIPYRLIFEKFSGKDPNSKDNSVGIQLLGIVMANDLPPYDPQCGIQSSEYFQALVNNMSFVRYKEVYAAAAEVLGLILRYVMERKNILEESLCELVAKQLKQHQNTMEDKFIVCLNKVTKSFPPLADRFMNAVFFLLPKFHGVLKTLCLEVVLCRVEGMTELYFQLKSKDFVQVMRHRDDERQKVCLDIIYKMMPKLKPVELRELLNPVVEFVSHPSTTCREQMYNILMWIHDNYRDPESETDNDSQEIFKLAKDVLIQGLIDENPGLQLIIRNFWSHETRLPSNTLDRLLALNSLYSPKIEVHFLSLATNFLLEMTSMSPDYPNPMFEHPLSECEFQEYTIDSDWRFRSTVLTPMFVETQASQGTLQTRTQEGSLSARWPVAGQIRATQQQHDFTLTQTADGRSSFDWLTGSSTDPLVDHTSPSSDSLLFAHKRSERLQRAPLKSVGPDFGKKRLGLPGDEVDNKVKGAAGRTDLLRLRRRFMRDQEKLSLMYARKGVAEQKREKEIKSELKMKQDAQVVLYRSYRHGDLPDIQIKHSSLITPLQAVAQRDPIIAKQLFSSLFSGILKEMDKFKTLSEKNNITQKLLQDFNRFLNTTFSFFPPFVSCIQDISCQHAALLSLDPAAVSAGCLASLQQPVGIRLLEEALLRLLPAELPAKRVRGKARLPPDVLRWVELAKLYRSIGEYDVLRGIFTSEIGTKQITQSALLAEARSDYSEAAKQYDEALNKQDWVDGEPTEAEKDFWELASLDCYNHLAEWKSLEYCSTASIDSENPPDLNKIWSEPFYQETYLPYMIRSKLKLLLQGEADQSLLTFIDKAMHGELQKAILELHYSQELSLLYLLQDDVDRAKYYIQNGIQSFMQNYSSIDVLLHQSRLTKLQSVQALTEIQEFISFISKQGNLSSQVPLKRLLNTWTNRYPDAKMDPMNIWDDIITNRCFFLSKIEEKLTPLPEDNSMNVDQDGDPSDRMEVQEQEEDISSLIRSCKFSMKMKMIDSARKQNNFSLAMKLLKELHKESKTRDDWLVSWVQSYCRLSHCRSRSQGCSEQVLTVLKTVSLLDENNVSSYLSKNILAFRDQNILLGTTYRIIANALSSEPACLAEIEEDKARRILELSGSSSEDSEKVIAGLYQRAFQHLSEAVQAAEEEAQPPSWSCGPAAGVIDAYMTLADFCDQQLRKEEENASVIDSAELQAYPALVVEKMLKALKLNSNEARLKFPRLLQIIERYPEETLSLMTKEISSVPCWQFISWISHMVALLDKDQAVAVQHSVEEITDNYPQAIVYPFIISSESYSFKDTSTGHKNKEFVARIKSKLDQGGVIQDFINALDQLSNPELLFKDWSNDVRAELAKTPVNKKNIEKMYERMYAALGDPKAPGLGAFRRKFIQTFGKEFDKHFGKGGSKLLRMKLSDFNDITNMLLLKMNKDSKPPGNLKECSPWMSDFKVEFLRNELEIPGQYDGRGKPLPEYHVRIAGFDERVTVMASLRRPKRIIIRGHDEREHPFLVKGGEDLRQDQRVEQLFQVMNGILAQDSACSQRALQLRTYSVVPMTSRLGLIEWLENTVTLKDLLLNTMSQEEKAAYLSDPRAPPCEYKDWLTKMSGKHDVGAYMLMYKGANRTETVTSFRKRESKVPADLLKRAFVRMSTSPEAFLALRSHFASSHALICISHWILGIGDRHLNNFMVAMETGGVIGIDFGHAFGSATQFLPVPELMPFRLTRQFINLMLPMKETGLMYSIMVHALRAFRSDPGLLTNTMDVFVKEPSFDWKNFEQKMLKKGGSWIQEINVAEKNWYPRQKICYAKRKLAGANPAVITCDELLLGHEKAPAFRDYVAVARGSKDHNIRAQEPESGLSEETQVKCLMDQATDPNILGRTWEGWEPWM
Chain of adenovirus E4 34k protein (product of early region 4 ORF6), expressed from plasmid OE6.5 as a fusion with a c-myc epitope (P03239 whole entry, the tested form may be a part): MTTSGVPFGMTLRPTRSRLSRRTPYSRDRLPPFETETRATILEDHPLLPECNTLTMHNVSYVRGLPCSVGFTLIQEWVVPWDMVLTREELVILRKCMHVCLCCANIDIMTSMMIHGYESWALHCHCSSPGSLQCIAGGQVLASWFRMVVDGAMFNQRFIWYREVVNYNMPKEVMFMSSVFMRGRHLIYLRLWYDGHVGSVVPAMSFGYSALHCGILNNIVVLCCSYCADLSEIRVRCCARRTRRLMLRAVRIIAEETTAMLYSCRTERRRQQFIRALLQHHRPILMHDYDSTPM

## adenovirus E4 34k protein (product of early region 4 ORF6), expressed from plasmid OE6.5 as a fusion with a c-myc epitope
  V(D)J recombination frequency (recombinant formation of substrate plasmid pJH200 in transfected 293 cells): 5 fold
